# Several values for one entry are separate records, joined by “and”; a condition that tells them apart may be missing. Equal values may be shown once. Entries after “also recorded” stand apart in the source; their conditions may differ. Read-outs that look alike come from different tables or passages of the source.
# B1: TF7 (protein)
# chain: QVQLQESGGGLAQPGGSLRVSCATSGFTFSSNYYISWVRQAPGRGLEWVSAINTGDGSTYYAHSVKGRFTISRDNAKNTLYLQMNSLKPEDTALYYCARSSLEGRIEKPYDYWGQGTQVTVSS
# modifications: TF7 clone
# B2: TA2 (protein)
# VHH: QVQLQESGGGLVQPGGSLRVSCAASGFTFSSYYMSWVRQAPGKGLEWVSAINTGTGSTYYADSVKGRFTISSDNAKNTVYLQMSSLKPEDTALYYCARSSLEGRVEKPYDYWGQGTQVTVSS
# modifications: TA2 clone
# B3: CG4: Anti-Calicheamicin sdAb, SEQ ID NO:12 (protein)
# VHH: QVQLQESGGGLVQAGGSLRLSCAASGRTISGYAMGWFRQAPGKERDLVAAISRSGTSTYYADSVKGRFTISRDNAKNTVYLQMNSLKPEDTAVYYCNAPGGIWGQGTQVTVSS
# modifications: CG4
# B4: 8C2 scFv (protein)
# scFv: EVQLQQSGAELVKPGASVKLSCTASGFNIKDTYIHWVKQRPEQGLEWIGMIDLANDNTKYDPKFQGKATIITDTSSNKAYLQVSSLTSEDTAVYYCATWGAIITLGGWGQGTLVTVSAAKGGGGSGGGGSGGGGSGGGGSDIQMTQSPASLSASVGETVTITCRASGNIHNSLAWYQQIKGRSPQLLVYNAKTLADGVPSRFSGSGSGTQYSLKINSLHPEDFGSYYCQHFWSTPFTFGSGTKLEIKRENLYFQG
# modifications: 8C2 scFv
# Assays:
# MOLM-14 cells [1] = experiment: MTT cytotoxicity of DM4 on MOLM-14 cells (DF3A2); assay type: cell-based, human; conditions: DM4 alone
# Protocol: (§1) Log-phase Lovo or MOLM-14 cells were seeded in 96-well microtiter plates at a density of 5,000 cells/well, in 100 μL or 70 μL of culture medium, respectively. Lovo cells were allowed to adhere for 24 h before cell culture media was aspirated and replaced with 100 μL of PBS containing a range of treatment for 6h, then washed for 2 times before replacing with fresh media and incubated for additional 90 h. MOLM-14 cells were re-suspended with treatment solutions, where 100 μL of cell-treatment suspension was aliquoted into wells of a 96-well plate for 24 h. Treatment solutions consisted of DM-4 with or without purified anti-drug sdAb. For MOLM-14 cells, 10 μL of MTT solution (5 mg/mL in pH 7.4 1× PBS) was added directly to wells following treatment incubation. For adherent cells, treatment media was aspirated from wells and cells were washed three times with 100 μL of fresh media. Following the final wash, 100 μL of complete media and 25 μL of MTT solution were added to each well. Cells were incubated for 4 h in order to allow cells to reduce MTT to formazan dye. Once MTT was reduced, 100 μL of 10% SDS prepared in 0.01 M HCl was added to each well and incubated overnight to solubilize the formazan crystals. Formazan dye was measured at 570 nm and normalized by cell debris at 690 nm.
# Lovo cells = experiment: MTT cytotoxicity of DM1 and DM4 on Lovo cells; assay type: cell-based; conditions: DM4 alone, read-out: IC50 of DM4
# Protocol: as §1, with “Lovo cells were allowed to adhere for 24 h before cell culture media was aspirated and replaced with 100 μL of PBS containing a range of treatment for 6h, then washed for 2 times before replacing with fresh media and incubated for additional 90 h.” left out
# LS174T cells = experiment: Competitive cell cytotoxicity assay with LS174T cells; assay type: cell-based
# Protocol: Log-phase MOLM-14, Ramos (RA 1), HT-29, LS174T, or NCI-N87 cells were seeded in 96-well microtiter plates at a density of 20,000 cells/well, 20,000 cells/well, 5,000 cells/well, 5,000 cells/well, and 10,000 cells/well, respectively, in 100 μL of culture medium. HT-29, LS174T, and NCI-N87 cells were allowed to adhere for 24 h before cell culture media was aspirated and replaced with 100 μL of fresh media containing a range of treatment for, 48 (LS174T), 96 (NCI-N87), or 120 (HT-29) h. MOLM-14 and Ramos cells were re-suspended with treatment solutions, where 100 μL of cell-treatment suspension was aliquoted into wells of a 96-well plate for 24 h. Treatment solutions consisted of calicheamicin, MMAE, topotecan, or SN38 with or without immunized animal plasma, purified anti-drug antibody, or antibody-drug conjugate (ADC) with or without plasma or anti-drug antibody. For MOLM-14 and Ramos cells, 25 μL of MTT solution (5 mg/mL in pH 7.4 1× PBS) was added directly to wells following treatment incubation. For adherent cells, treatment media was aspirated from wells and cells were washed three times with 100 μL of fresh media. Following the final wash, 100 μL of complete media and 25 μL of MTT solution were added to each well. Cells were incubated for 4 h in order to allow cells to reduce MTT to formazan dye. […] Formazan dye was measured at 570 nm and normalized by cell debris at 690 nm.
# 8C2 mAb = experiment: Competitive ELISA of 8C2 with topotecan and SN38 (BSA-topotecan coated); assay type: binding, murine; conditions: 8C2 held constant at 10 nM; read-out: IC50 in competitive ELISA vs intact 8C2
# Protocol: A competitive ELISA was employed to determine the affinity of intact 8C2 mAb for SN38 and topotecan. A BSA-topotecan conjugate was synthesized and immobilized as previously described (Shah et al., Int J Pharm. 2014; 465(1-2):228-238. doi:10.1016/j.ijpharm.2014.01.038) 8C2 concentration was held constant at 10 nM with increasing concentrations of topotecan or SN38. 8C2 drug samples were incubated for 2 hours at room temperature with agitation. Following incubation, wells were washed three times with 250 μL of PBS-T and three times with dH2O. Wells were then incubated with a 1:500 dilution anti-mouse AP conjugate secondary in PBS-T with 3% BSA for 1 h. After washing, 250 μL of 4 mg/ml PNPP in diethanolamine buffer pH 9.8 with absorbance being read at 405 nm. The change in absorbance over time data was fit to a four-parameter function in GraphPad Prism 7.
# Trastuzumab deruxtecan = experiment: Indirect ELISA of purified sdAb on trastuzumab deruxtecan; assay type: binding
# Description: FIG. 16. SDS-PAGE and Indirect ELISA.
# FIG. 18. SDS-PAGE and Indirect ELISA.
# [2] = sdAb CG4 ELISA and Dynabeads binding assay; conditions: for actual fold reduction considering background: 10 μM calicheamicin
# Protocol: Nunc Maxisorp 96-well plates were coated with 4 μg/ml Cetuximab or Cetuximab-calicheamicin, or 5 μg/ml Avidin. Plates were washed three times with PBST and three times with dH2O, and blocked with MPBS for 2 h at RT. For the Avidin coated plates, plates were washed three times with PBST and incubated with 1 μM Biotin-Calicheamcin. Plates were then washed three times with PBST and incubated with increasing concentration of purified sdAb CG4 (G4 from FIG. 25) at RT for 2 h, with or without pre-incubation with free Calicheamicin at 10 μM. Plates were then washed three times with PBST, where bound sdAb was detected using an anti-His tag HRP-conjugated Ab diluted 1:1000 in MPBST. Following incubated and five washed with PBST, 100 μL of 1-Step Turbo TMB-ELISA solution was added to each well and incubated for 30 minutes. The reaction was quenched by adding 100 μL of Stop solution to each well and absorbance was measured at 450 nm. Alternatively, wells can also be incubated with 1:1000 diluted anti-His tag AP-conjugated Ab, instead of HRP conjugated Ab. After washing, 4 mg/ml PNPP in diethanolamine buffer pH 9.8 with absorbance being read at 405 nm.
# Calicheamicin conjugated dynabeads were washed with PBST and blocked with MPBS for 30 min. Beads were washed three times with PBST and incubated with sdAb for 30 minutes. Bound sdAb were detected with 1:1000 diluted anti-His tag HRP-conjugated Ab. After washed with PBST, beads were resuspended with 500 μL of 1-Step Turbo TMB-ELISA solution and incubated for 30 minutes. The reaction was quenched by adding Stop solution, and absorbance was measured at 450 nm.
# [3] = Screening of llama sdAb phage clones against calicheamicin conjugates (FIG. 25); assay type: binding
# Protocol: A master plate was generated by inoculating a single colony into wells of a 96-well round-bottom culture plate filled with […] 2×TY supplemented with 100 μg/mL ampicillin, 2% (wt/vol) glucose and 10% (vol/vol) glycerol, and grown overnight at 37° C. These wells were then used to inoculate wells of 96-deepwell plates containing 1 mL of 2×TY medium (100 μg/mL ampicillin+0.1% (wt/v) glucose per well). Plates were incubated them for 3 h at 37° C. and 250 rpm until OD600≈0.5. Nanobody expression was induced with 4 μL of 0.5 M IPTG per well (final concentration of 2 mM) and incubated for an additional 15-24 h at 37° C. and 250 rpm. Nunc Maxisorp 96-well plates were coated as described previously. Plates were washed three times with PBST and blocked with MPBS for 2 h at RT. […] Plates were then washed three times with PBST, where bound phage was detected using an anti-HA tag HRP-conjugated Ab diluted 1:1000 in PBST. Following incubated and five washed with PBST, 100 μL of 1-Step Turbo TMB-ELISA solution was added to each well and incubated for 30 minutes. The reaction was quenched by adding 100 μL of Stop solution to each well and absorbance was measured at 450 nm.
# 50 μl Dynabeads-calicheamicin were blocked with MPBS (PBS+2% non-fat dry milk) at RT for 30 minutes. Following pre-incubation with 1:50 preimmunized llama plasma, phage solutions were incubated with beads at RT for 30 minutes. […]
# MOLM-14 cells [4] = experiment: MTT cytotoxicity of calicheamicin on MOLM-14 cells; assay type: cell-based, human; conditions: 24 h, 100 μM peptide or sdAb
# Protocol: (§2) Log-phase MOLM-14, Ramos (RA 1), HT-29, LS174T, or NCI-N87 cells were seeded in 96-well microtiter plates at a density of 20,000 cells/well, 20,000 cells/well, 5,000 cells/well, 5,000 cells/well, and 10,000 cells/well, respectively, in 100 μL of culture medium. HT-29, LS174T, and NCI-N87 cells were allowed to adhere for 24 h before cell culture media was aspirated and replaced with 100 μL of fresh media containing a range of treatment for, 48 (LS174T), 96 (NCI-N87), or 120 (HT-29) h. MOLM-14 and Ramos cells were re-suspended with treatment solutions, where 100 μL of cell-treatment suspension was aliquoted into wells of a 96-well plate for 24 h. Treatment solutions consisted of calicheamicin, MMAE, topotecan, or SN38 with or without immunized animal plasma, purified anti-drug antibody, or antibody-drug conjugate (ADC) with or without plasma or anti-drug antibody. For MOLM-14 and Ramos cells, 25 μL of MTT solution (5 mg/mL in pH 7.4 1× PBS) was added directly to wells following treatment incubation. For adherent cells, treatment media was aspirated from wells and cells were washed three times with 100 μL of fresh media. Following the final wash, 100 μL of complete media and 25 μL of MTT solution were added to each well. Cells were incubated for 4 h in order to allow cells to reduce MTT to formazan dye. Once MTT was reduced, 100 μL of 10% SDS prepared in 0.01 M HCl was added to each well and incubated overnight to solubilize the formazan crystals. Formazan dye was measured at 570 nm and normalized by cell debris at 690 nm.
# (§3) Fresh media containing a range of treatment were pre-incubated with or without 100 μM purified sdAb at room temperature for 30 minutes. Log-phase MOLM-14 cells were seeded in 96-well microtiter plates at a density of 20,000 cells/well, and were re-suspended with treatment solutions, where 100 μL of cell-treatment suspension was aliquoted into wells of a 96-well plate for 24 h. 25 μL of MTT solution (5 mg/mL in pH 7.4 1× PBS) was added directly to wells following treatment incubation. […] Formazan dye was measured at 570 nm and normalized by cell debris at 690 nm.
# Ramos cells = experiment: MTT cytotoxicity of calicheamicin on Ramos cells; assay type: cell-based; conditions: 24 h
# Protocol: as §2, §3
molecule,measurement,setting,value
COc1cc2cc(c1Cl)N(C)C(=O)C[C@H](OC(=O)[C@H](C)N(C)C(=O)CCC(C)(C)S)[C@]1(C)O[C@H]1[C@H](C)[C@@H]1C[C@@](O)(NC(=O)O1)[C@H](OC)/C=C/C=C(\C)C2 [DM4],IC50,MOLM-14 cells [1],18 nM and 18.4 nM
same,IC50,Lovo cells; 6 h exposure,7.7 nM and 21.5 nM
same,IC50,Lovo cells; 24 h exposure,0.713 nM and 1.84 nM
"CC[C@@]1(O)C(=O)OCc2c1cc1n(c2=O)Cc2cc3c(CN(C)C)c(O)ccc3nc2-1 [topotecan, reference compound]",topotecan concentration at which significant cell death was observed,LS174T cells; absence of 8C2 or 8C2 scFv,2.5 nM
same,IC50,8C2 mAb,9.3 nM
B1,binding to trastuzumab deruxtecan,Trastuzumab deruxtecan,concentration-dependent binding
B2,binding to trastuzumab deruxtecan,Trastuzumab deruxtecan,concentration-dependent binding
B3,fold decrease of CG4 binding signal by 10 μM calicheamicin,"[2]; avidin (biotin-calicheamicin) coated plates, 64 μM CG4",2 fold
same,actual fold reduction considering background,[2]; avidin coated plates,~4.3 fold
same,binding to calicheamicin conjugates vs CG4 concentration,[2]; cetuximab-calicheamicin ELISA and Dynabeads-calicheamicin,apparent calicheamicin binding with increasing concentration; also recorded: increased with increasing concentration
same,actual fold reduction considering background,[2]; cetuximab-calicheamicin coated plates,around 3.3 fold
same,effect of 1 μM free calicheamicin on clone binding,[3]; rescreen of five colonies,only clone inhibited; also recorded: loss of binding signal
same,binding to dynabeads-calicheamicin,[3]; single colonies,high binding
same,fold change of calicheamicin IC50,MOLM-14 cells [4],15.4 fold
same,fold inhibition of calicheamicin cytotoxicity (IC50 shift),Ramos cells,6.34 fold
B4,effect on topotecan cytotoxicity,LS174T cells; topotecan with 8C2 mAb or scFv,right-shifted; also recorded: increased the viability
